According to patent US20230220115A1:

Legend:
[1] = target: recombinant human Fc gamma receptor CD32b/c (human) (UniProt P31994)
[2] = target: recombinant human Fc gamma receptor CD16b (FcRγIIIb) (human) (UniProt O75015)
[3] = target: recombinant human Fc gamma receptor CD64 (FcRγI) (human) (UniProt P12314)
[4] = target: recombinant human Fc gamma receptor CD16a 158V (FcRγIIIa) (human) (UniProt P08637)
[5] = target: recombinant human Fc gamma receptor CD32a 131R (human) (UniProt P12318)
[6] = target: recombinant human Fc gamma receptor CD32a 131H (human) (UniProt P12318)
recombinant human Fc gamma receptor CD32a 131H (human), sequence (P12318 36-218): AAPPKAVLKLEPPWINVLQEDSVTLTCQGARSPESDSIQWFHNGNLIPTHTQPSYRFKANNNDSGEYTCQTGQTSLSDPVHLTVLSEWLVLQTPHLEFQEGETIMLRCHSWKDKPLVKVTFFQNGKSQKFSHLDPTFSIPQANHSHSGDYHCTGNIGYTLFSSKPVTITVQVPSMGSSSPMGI

[7] = target: CD20 Lipoparticles (UniProt P11836)
CD20 Lipoparticles, sequence (P11836 whole entry): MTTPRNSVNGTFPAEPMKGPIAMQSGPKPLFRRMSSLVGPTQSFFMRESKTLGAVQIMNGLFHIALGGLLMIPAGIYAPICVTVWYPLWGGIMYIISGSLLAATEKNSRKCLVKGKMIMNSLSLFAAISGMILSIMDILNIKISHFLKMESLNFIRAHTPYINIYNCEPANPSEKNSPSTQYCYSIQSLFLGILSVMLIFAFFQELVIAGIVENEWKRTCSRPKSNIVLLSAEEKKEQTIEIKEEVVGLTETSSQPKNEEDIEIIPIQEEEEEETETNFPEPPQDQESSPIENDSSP

recombinant human Fc gamma receptor CD16b (FcRγIIIb) (human), sequence (O75015 17-200 limits assumed): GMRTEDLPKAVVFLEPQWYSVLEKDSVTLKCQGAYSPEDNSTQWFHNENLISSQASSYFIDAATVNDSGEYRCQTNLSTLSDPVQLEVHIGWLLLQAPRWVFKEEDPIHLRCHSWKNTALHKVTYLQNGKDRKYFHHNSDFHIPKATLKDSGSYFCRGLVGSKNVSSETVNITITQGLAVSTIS
recombinant human Fc gamma receptor CD16a 158V (FcRγIIIa) (human), sequence (P08637 17-208 F176V limits assumed): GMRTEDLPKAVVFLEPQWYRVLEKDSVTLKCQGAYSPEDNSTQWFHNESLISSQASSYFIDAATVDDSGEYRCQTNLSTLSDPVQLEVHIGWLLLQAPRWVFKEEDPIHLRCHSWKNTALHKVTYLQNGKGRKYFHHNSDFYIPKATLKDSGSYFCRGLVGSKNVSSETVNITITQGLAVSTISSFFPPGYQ
recombinant human Fc gamma receptor CD32b/c (human), sequence (P31994 46-217): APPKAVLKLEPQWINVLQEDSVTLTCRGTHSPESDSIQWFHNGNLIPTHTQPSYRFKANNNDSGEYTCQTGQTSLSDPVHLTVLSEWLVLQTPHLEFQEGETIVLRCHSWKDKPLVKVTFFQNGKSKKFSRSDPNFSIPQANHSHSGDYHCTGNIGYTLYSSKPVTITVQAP
recombinant human Fc gamma receptor CD32a 131R (human), sequence (P12318 36-218 H167R): as the sequence (P12318 36-218) above, with H132R counted along it
recombinant human Fc gamma receptor CD64 (FcRγI) (human), sequence (P12314 16-288 limits assumed): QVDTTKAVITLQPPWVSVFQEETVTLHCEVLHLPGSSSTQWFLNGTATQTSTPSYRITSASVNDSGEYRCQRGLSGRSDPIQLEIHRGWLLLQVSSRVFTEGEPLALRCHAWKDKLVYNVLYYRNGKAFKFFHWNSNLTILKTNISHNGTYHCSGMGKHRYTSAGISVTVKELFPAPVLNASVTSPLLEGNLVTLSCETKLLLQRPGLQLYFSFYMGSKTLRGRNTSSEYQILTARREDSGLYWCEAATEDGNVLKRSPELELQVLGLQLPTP

- Kd [1]: 1520 nM
- Kd [2]: 1530 nM
- Kd [3]: 52.8 nM
- Kd [4]: 715 nM
- Kd [5]: 1250 nM
- Kd [6]: 892 nM
- Kd [7]: < 0.001 nM
Substance: Rituxan (antibody)
